Test results taken from paper PMC11910589.
Like-named read-outs stand apart in the source and are kept apart here.

Key:
Test in all cases: fluorescence polarization
LEDGF/p75 PWWP = LEDGF/p75 PWWP (Homo sapiens, UniProt O75475 4-89)
dP75 PWWP F43A = biological target: T1, dP75 PWWP F43A (Drosophila melanogaster, UniProt Q9VAA9 9-90, F43A)
T1 sequence: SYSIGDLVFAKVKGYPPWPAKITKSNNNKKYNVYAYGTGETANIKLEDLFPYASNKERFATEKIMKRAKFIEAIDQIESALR

dP75 PWWP Y23A = biological target: T2, dP75 PWWP Y23A (Drosophila melanogaster, UniProt Q9VAA9 9-90, Y23A)
T2 sequence: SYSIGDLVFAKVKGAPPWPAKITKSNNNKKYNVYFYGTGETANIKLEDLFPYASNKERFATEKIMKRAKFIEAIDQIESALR

dP75 PWWP K53A = biological target: T3, dP75 PWWP K53A (Drosophila melanogaster, UniProt Q9VAA9 9-90, K53A)
T3 sequence: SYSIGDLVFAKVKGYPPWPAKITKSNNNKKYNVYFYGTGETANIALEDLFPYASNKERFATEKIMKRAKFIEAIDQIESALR

dP75 PWWP K38A = biological target: T4, dP75 PWWP K38A (Drosophila melanogaster, UniProt Q9VAA9 9-90, K38A)
T4 sequence: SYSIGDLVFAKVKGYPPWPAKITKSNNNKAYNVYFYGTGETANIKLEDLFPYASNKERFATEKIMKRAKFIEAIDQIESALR

dP75 PWWP [1] = biological target: T5, dP75 PWWP (Drosophila melanogaster, UniProt Q9VAA9 9-90)
T5 sequence: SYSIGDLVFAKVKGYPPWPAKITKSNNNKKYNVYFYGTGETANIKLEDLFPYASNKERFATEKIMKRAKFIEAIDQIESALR

dP75 PWWP E48A = biological target: T6, dP75 PWWP E48A (Drosophila melanogaster, UniProt Q9VAA9 9-90, E48A)
T6 sequence: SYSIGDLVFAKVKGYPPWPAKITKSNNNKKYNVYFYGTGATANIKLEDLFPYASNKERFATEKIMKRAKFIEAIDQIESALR

dP75 PWWP [2] = biological target: T5, dP75 PWWP; remark: listed apart in the source
dP75 PWWP [3] = biological target: T5, dP75 PWWP; remark: listed apart in the source
dP75 PWWP [4] = biological target: T5, dP75 PWWP; remark: listed apart in the source

Chain of LEDGF/p75 PWWP (O75475 4-89): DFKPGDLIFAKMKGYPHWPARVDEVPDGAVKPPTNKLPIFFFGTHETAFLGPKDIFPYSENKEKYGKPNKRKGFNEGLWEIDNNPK

Binder: TTTTTTTTTTTT (ssDNA) [FAM-12T (polyT)]
- binding result (LEDGF/p75 PWWP): no binding
- binding result (dP75 PWWP F43A): no binding
- binding result (dP75 PWWP Y23A): no binding
- Kd (dP75 PWWP K53A): 109 ± 2.9 µM
- Kd (dP75 PWWP K38A): 60.9 ± 0.9 µM
- Kd (dP75 PWWP [1]): 24.2 ± 1.1 µM
- Kd (dP75 PWWP E48A): 64.2 ± 2.8 µM

B1: 20 bp random (dsDNA)
DNA 1: CGATCTGCGTCAGCTGTAGC
DNA 2: GCTACAGCTGACGCAGATCG
- binding result (dP75 PWWP [1]): no binding

Binder: CCCCCCCCCCCC (ssDNA) [FAM-12C (polyC)]
- Kd (dP75 PWWP [1]): 151 ± 38.9 µM

B2: 12 bp poly(G:C) (dsDNA)
DNA 1: GGGGGGGGGGGG
DNA 2: CCCCCCCCCCCC
- binding result (dP75 PWWP [1]): no binding

B3: 12 bp poly(A:T) (dsDNA)
DNA 1: TTTTTTTTTTTT
DNA 2: AAAAAAAAAAAA
- Kd (dP75 PWWP [2]): 18.2 ± 1.17 µM

Binder: GGGGGGGGGGGG (ssDNA) [FAM-12G (polyG)]
- binding result (dP75 PWWP [3]): no binding

Binder: AAAAAAAAAAAA (ssDNA) [FAM-12A (polyA)]
- binding result (dP75 PWWP [4]): no binding
